Reference: patent publication US20080096811A1, “[…] VPAC2 RECEPTOR PEPTIDE AGONISTS” (Eli Lilly and Company, published 2008)
*1 amine or outer side, *2 acyl side, *3 side chain or, on linkers, in order; H or OH if unused. Where no end group is shown, it is not given here. Side-chain parts run from the residue outwards. The star is where a group is joined. γGlu = O=C(O)[C@H](CCC(=O)[*:2])N[*:1]; Hydrocinnamoyl = O=C(CCc1ccccc1)*; Palmitoyl = CCCCCCCCCCCCCCCC(=O)*; Hexanoyl = CCCCCC(=O)*; Bz = O=C(c1ccccc1)*

T1: human VPAC2 receptor (human) (UniProt P41587)
T1 sequence: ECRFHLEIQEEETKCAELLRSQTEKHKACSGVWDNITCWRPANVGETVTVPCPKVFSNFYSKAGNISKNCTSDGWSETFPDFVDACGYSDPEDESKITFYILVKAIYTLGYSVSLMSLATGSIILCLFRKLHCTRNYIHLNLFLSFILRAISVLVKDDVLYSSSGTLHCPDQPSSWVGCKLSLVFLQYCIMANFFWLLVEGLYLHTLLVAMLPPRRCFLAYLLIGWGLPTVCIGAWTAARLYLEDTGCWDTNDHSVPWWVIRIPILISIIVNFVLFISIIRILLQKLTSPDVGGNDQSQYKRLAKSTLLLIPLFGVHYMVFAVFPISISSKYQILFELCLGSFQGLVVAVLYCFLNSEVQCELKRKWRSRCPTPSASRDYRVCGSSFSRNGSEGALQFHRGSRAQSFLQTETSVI

B1: P128 (peptide)
peptide: HSDAVFTDNYTRLRKQVAAKKYLQSIKNSRTSPPPK(Trp)-NH2
modifications: N-terminus assumed
SMILES: CC[C@H](C)[C@H](NC(=O)[C@H](CO)NC(=O)[C@H](CCC(N)=O)NC(=O)[C@H](CC(C)C)NC(=O)[C@H](Cc1ccc(O)cc1)NC(=O)[C@H](CCCCN)NC(=O)[C@H](CCCCN)NC(=O)[C@H](C)NC(=O)[C@H](C)NC(=O)[C@@H](NC(=O)[C@H](CCC(N)=O)NC(=O)[C@H](CCCCN)NC(=O)[C@H](CCCNC(=N)N)NC(=O)[C@H](CC(C)C)NC(=O)[C@H](CCCNC(=N)N)NC(=O)[C@@H](NC(=O)[C@H](Cc1ccc(O)cc1)NC(=O)[C@H](CC(N)=O)NC(=O)[C@H](CC(=O)O)NC(=O)[C@@H](NC(=O)[C@H](Cc1ccccc1)NC(=O)[C@@H](NC(=O)[C@H](C)NC(=O)[C@H](CC(=O)O)NC(=O)[C@H](CO)NC(=O)[C@@H](N)Cc1c[nH]cn1)C(C)C)[C@@H](C)O)[C@@H](C)O)C(C)C)C(=O)N[C@@H](CCCCN)C(=O)N[C@@H](CC(N)=O)C(=O)N[C@@H](CO)C(=O)N[C@@H](CCCNC(=N)N)C(=O)N[C@H](C(=O)N[C@@H](CO)C(=O)N1CCC[C@H]1C(=O)N1CCC[C@H]1C(=O)N1CCC[C@H]1C(=O)N[C@@H](CCCCNC(=O)[C@@H](N)Cc1c[nH]c2ccccc12)C(N)=O)[C@@H](C)O
B2: P156 (peptide)
peptide: Hexanoyl-HSDAVFTDNYTRLLLKVAAKKYLQSIKNSRTSPPP-NH2
SMILES: CCCCCC(=O)N[C@@H](Cc1c[nH]cn1)C(=O)N[C@@H](CO)C(=O)N[C@@H](CC(=O)O)C(=O)N[C@@H](C)C(=O)N[C@H](C(=O)N[C@@H](Cc1ccccc1)C(=O)N[C@H](C(=O)N[C@@H](CC(=O)O)C(=O)N[C@@H](CC(N)=O)C(=O)N[C@@H](Cc1ccc(O)cc1)C(=O)N[C@H](C(=O)N[C@@H](CCCNC(=N)N)C(=O)N[C@@H](CC(C)C)C(=O)N[C@@H](CC(C)C)C(=O)N[C@@H](CC(C)C)C(=O)N[C@@H](CCCCN)C(=O)N[C@H](C(=O)N[C@@H](C)C(=O)N[C@@H](C)C(=O)N[C@@H](CCCCN)C(=O)N[C@@H](CCCCN)C(=O)N[C@@H](Cc1ccc(O)cc1)C(=O)N[C@@H](CC(C)C)C(=O)N[C@@H](CCC(N)=O)C(=O)N[C@@H](CO)C(=O)N[C@H](C(=O)N[C@@H](CCCCN)C(=O)N[C@@H](CC(N)=O)C(=O)N[C@@H](CO)C(=O)N[C@@H](CCCNC(=N)N)C(=O)N[C@H](C(=O)N[C@@H](CO)C(=O)N1CCC[C@H]1C(=O)N1CCC[C@H]1C(=O)N1CCC[C@H]1C(N)=O)[C@@H](C)O)[C@@H](C)CC)C(C)C)[C@@H](C)O)[C@@H](C)O)C(C)C
B3: P157 (peptide)
peptide: Hexanoyl-HSDAVFTDQYTRLRKQVAAKKYLQSIKQSRTSPPP-NH2
SMILES: CCCCCC(=O)N[C@@H](Cc1c[nH]cn1)C(=O)N[C@@H](CO)C(=O)N[C@@H](CC(=O)O)C(=O)N[C@@H](C)C(=O)N[C@H](C(=O)N[C@@H](Cc1ccccc1)C(=O)N[C@H](C(=O)N[C@@H](CC(=O)O)C(=O)N[C@@H](CCC(N)=O)C(=O)N[C@@H](Cc1ccc(O)cc1)C(=O)N[C@H](C(=O)N[C@@H](CCCNC(=N)N)C(=O)N[C@@H](CC(C)C)C(=O)N[C@@H](CCCNC(=N)N)C(=O)N[C@@H](CCCCN)C(=O)N[C@@H](CCC(N)=O)C(=O)N[C@H](C(=O)N[C@@H](C)C(=O)N[C@@H](C)C(=O)N[C@@H](CCCCN)C(=O)N[C@@H](CCCCN)C(=O)N[C@@H](Cc1ccc(O)cc1)C(=O)N[C@@H](CC(C)C)C(=O)N[C@@H](CCC(N)=O)C(=O)N[C@@H](CO)C(=O)N[C@H](C(=O)N[C@@H](CCCCN)C(=O)N[C@@H](CCC(N)=O)C(=O)N[C@@H](CO)C(=O)N[C@@H](CCCNC(=N)N)C(=O)N[C@H](C(=O)N[C@@H](CO)C(=O)N1CCC[C@H]1C(=O)N1CCC[C@H]1C(=O)N1CCC[C@H]1C(N)=O)[C@@H](C)O)[C@@H](C)CC)C(C)C)[C@@H](C)O)[C@@H](C)O)C(C)C
B4: P178 (peptide)
peptide: Hexanoyl-HSDAVFTDNYTRLRKAAAAKKYLQSIKNSRTSPPP-NH2
SMILES: CCCCCC(=O)N[C@@H](Cc1c[nH]cn1)C(=O)N[C@@H](CO)C(=O)N[C@@H](CC(=O)O)C(=O)N[C@@H](C)C(=O)N[C@H](C(=O)N[C@@H](Cc1ccccc1)C(=O)N[C@H](C(=O)N[C@@H](CC(=O)O)C(=O)N[C@@H](CC(N)=O)C(=O)N[C@@H](Cc1ccc(O)cc1)C(=O)N[C@H](C(=O)N[C@@H](CCCNC(=N)N)C(=O)N[C@@H](CC(C)C)C(=O)N[C@@H](CCCNC(=N)N)C(=O)N[C@@H](CCCCN)C(=O)N[C@@H](C)C(=O)N[C@@H](C)C(=O)N[C@@H](C)C(=O)N[C@@H](C)C(=O)N[C@@H](CCCCN)C(=O)N[C@@H](CCCCN)C(=O)N[C@@H](Cc1ccc(O)cc1)C(=O)N[C@@H](CC(C)C)C(=O)N[C@@H](CCC(N)=O)C(=O)N[C@@H](CO)C(=O)N[C@H](C(=O)N[C@@H](CCCCN)C(=O)N[C@@H](CC(N)=O)C(=O)N[C@@H](CO)C(=O)N[C@@H](CCCNC(=N)N)C(=O)N[C@H](C(=O)N[C@@H](CO)C(=O)N1CCC[C@H]1C(=O)N1CCC[C@H]1C(=O)N1CCC[C@H]1C(N)=O)[C@@H](C)O)[C@@H](C)CC)[C@@H](C)O)[C@@H](C)O)C(C)C
B5: P80 (peptide)
peptide: HSDAVFTDNYTRLRKQVAAKKYLQSIKNSRTSPPPK([γGlu-Palmitoyl])-NH2
modifications: N-terminus assumed
SMILES: CCCCCCCCCCCCCCCC(=O)N[C@@H](CCC(=O)NCCCC[C@H](NC(=O)[C@@H]1CCCN1C(=O)[C@@H]1CCCN1C(=O)[C@@H]1CCCN1C(=O)[C@H](CO)NC(=O)[C@@H](NC(=O)[C@H](CCCNC(=N)N)NC(=O)[C@H](CO)NC(=O)[C@H](CC(N)=O)NC(=O)[C@H](CCCCN)NC(=O)[C@@H](NC(=O)[C@H](CO)NC(=O)[C@H](CCC(N)=O)NC(=O)[C@H](CC(C)C)NC(=O)[C@H](Cc1ccc(O)cc1)NC(=O)[C@H](CCCCN)NC(=O)[C@H](CCCCN)NC(=O)[C@H](C)NC(=O)[C@H](C)NC(=O)[C@@H](NC(=O)[C@H](CCC(N)=O)NC(=O)[C@H](CCCCN)NC(=O)[C@H](CCCNC(=N)N)NC(=O)[C@H](CC(C)C)NC(=O)[C@H](CCCNC(=N)N)NC(=O)[C@@H](NC(=O)[C@H](Cc1ccc(O)cc1)NC(=O)[C@H](CC(N)=O)NC(=O)[C@H](CC(=O)O)NC(=O)[C@@H](NC(=O)[C@H](Cc1ccccc1)NC(=O)[C@@H](NC(=O)[C@H](C)NC(=O)[C@H](CC(=O)O)NC(=O)[C@H](CO)NC(=O)[C@@H](N)Cc1c[nH]cn1)C(C)C)[C@@H](C)O)[C@@H](C)O)C(C)C)[C@@H](C)CC)[C@@H](C)O)C(N)=O)C(=O)O
B6: P90 (peptide)
peptide: Hydrocinnamoyl-HSDAVFTDNYTRLRKQVAAKKYLQSIKNSRTSPPP-NH2
SMILES: CC[C@H](C)[C@H](NC(=O)[C@H](CO)NC(=O)[C@H](CCC(N)=O)NC(=O)[C@H](CC(C)C)NC(=O)[C@H](Cc1ccc(O)cc1)NC(=O)[C@H](CCCCN)NC(=O)[C@H](CCCCN)NC(=O)[C@H](C)NC(=O)[C@H](C)NC(=O)[C@@H](NC(=O)[C@H](CCC(N)=O)NC(=O)[C@H](CCCCN)NC(=O)[C@H](CCCNC(=N)N)NC(=O)[C@H](CC(C)C)NC(=O)[C@H](CCCNC(=N)N)NC(=O)[C@@H](NC(=O)[C@H](Cc1ccc(O)cc1)NC(=O)[C@H](CC(N)=O)NC(=O)[C@H](CC(=O)O)NC(=O)[C@@H](NC(=O)[C@H](Cc1ccccc1)NC(=O)[C@@H](NC(=O)[C@H](C)NC(=O)[C@H](CC(=O)O)NC(=O)[C@H](CO)NC(=O)[C@H](Cc1c[nH]cn1)NC(=O)CCc1ccccc1)C(C)C)[C@@H](C)O)[C@@H](C)O)C(C)C)C(=O)N[C@@H](CCCCN)C(=O)N[C@@H](CC(N)=O)C(=O)N[C@@H](CO)C(=O)N[C@@H](CCCNC(=N)N)C(=O)N[C@H](C(=O)N[C@@H](CO)C(=O)N1CCC[C@H]1C(=O)N1CCC[C@H]1C(=O)N1CCC[C@H]1C(N)=O)[C@@H](C)O
B7: P91 (peptide)
peptide: Bz-HSDAVFTDNYTRLRKQVAAKKYLQSIKNSRTSPPP-NH2
SMILES: CC[C@H](C)[C@H](NC(=O)[C@H](CO)NC(=O)[C@H](CCC(N)=O)NC(=O)[C@H](CC(C)C)NC(=O)[C@H](Cc1ccc(O)cc1)NC(=O)[C@H](CCCCN)NC(=O)[C@H](CCCCN)NC(=O)[C@H](C)NC(=O)[C@H](C)NC(=O)[C@@H](NC(=O)[C@H](CCC(N)=O)NC(=O)[C@H](CCCCN)NC(=O)[C@H](CCCNC(=N)N)NC(=O)[C@H](CC(C)C)NC(=O)[C@H](CCCNC(=N)N)NC(=O)[C@@H](NC(=O)[C@H](Cc1ccc(O)cc1)NC(=O)[C@H](CC(N)=O)NC(=O)[C@H](CC(=O)O)NC(=O)[C@@H](NC(=O)[C@H](Cc1ccccc1)NC(=O)[C@@H](NC(=O)[C@H](C)NC(=O)[C@H](CC(=O)O)NC(=O)[C@H](CO)NC(=O)[C@H](Cc1c[nH]cn1)NC(=O)c1ccccc1)C(C)C)[C@@H](C)O)[C@@H](C)O)C(C)C)C(=O)N[C@@H](CCCCN)C(=O)N[C@@H](CC(N)=O)C(=O)N[C@@H](CO)C(=O)N[C@@H](CCCNC(=N)N)C(=O)N[C@H](C(=O)N[C@@H](CO)C(=O)N1CCC[C@H]1C(=O)N1CCC[C@H]1C(=O)N1CCC[C@H]1C(N)=O)[C@@H](C)O

target: T1, human VPAC2 receptor (human)

With B1 as the binder, how does the EC50 (nM) for cAMP generation, Alpha Screen read?
Its EC50 (nM) for cAMP generation, Alpha Screen is 1.78 nM.

Which EC50 (nM) for cAMP generation, Alpha Screen does the source give for B2 here?
The EC50 (nM) for cAMP generation, Alpha Screen was 0.29 nM.

For B3, which EC50 (nM) for cAMP generation, Alpha Screen is on record?
Its EC50 (nM) for cAMP generation, Alpha Screen is 0.06 nM.

How did the EC50 (nM) for cAMP generation, Alpha Screen turn out when B4 was run?
Its EC50 (nM) for cAMP generation, Alpha Screen is 0.12 nM.

Which EC50 (nM) for cAMP generation, Alpha Screen does the source give for B5 here?
The EC50 (nM) for cAMP generation, Alpha Screen was 1.82 nM.

And the EC50 (nM) for cAMP generation, DiscoveRx?
The EC50 (nM) for cAMP generation, DiscoveRx was 2.8 nM.

Which EC50 (nM) for cAMP generation, Alpha Screen does the source give for B6 here?
The EC50 (nM) for cAMP generation, Alpha Screen was 4.01 nM.

What about the EC50 (nM) for cAMP generation, DiscoveRx of the same binder?
The EC50 (nM) for cAMP generation, DiscoveRx was 1.7 nM.

What does the source list for B7?
EC50 (nM) for cAMP generation, Alpha Screen: 1.9 nM; EC50 (nM) for cAMP generation, DiscoveRx: 0.76 nM
